Data on two molecules can be found in patent US7087420B1, “Microbial β-glucuronidase genes, gene products and uses thereof” (Cambia, priority 1997, dated 2006).

Common to all, as to assay type: cell-based
For one test, the system named is yeast. Put plainly: GUS activity of transfectants with expression vectors, yeast host. Also on record: key: all tested transfectants exhibit GUS activity (indicated by a +). The method, then:
(§1) A series of expression vector constructs of three different GUS genes, E. coli GUS, Staphylococcus GUS, and the AO version of codon-optimized Staphylococcus GUS, are prepared and tested for enzymatic activity in E. coli, yeast, and plants (rice, Millin variety). […] The E. coli vector contains a sequence encoding a pelB signal peptide, the yeast vectors contain a sequence encoding either an invertase or Mat alpha signal peptide, and the plant vectors contain a sequence encoding either a glycine-rich protein (GRP) or extensin signal peptide.
(§2) The GUS genes are cloned into each of these vectors using standard recombinant techniques of isolation of a GUS-gene containing fragment and ligation into an appropriately restricted vector. The recombinant vectors are then transfected into the appropriate host and transfectants are tested for GUS activity.
(§3) Moreover, similar results are obtained regardless of the presence or absence of a signal peptide.

The subject of another test is KW1 cells. Put plainly: Cellular localization: GUS activity in periplasm fraction, β-gal activity subtracted. The conditions noted are these: percent of total activity in periplasm fraction, expressed in E. coli, β-gal background subtracted. From the text: Secretion index maybe calculated as the percentage of total GUS activity in periplasm or other extracellular environment less the percentage of total β-galactosidase activity found in the same extracellular environment.
Secretion of the enzyme may be verified by assaying for GUS activity in the extracellular environment. If the cells secreting GUS are gram-positive bacteria, yeasts, molds, plants, or other organisms with cell walls, activity may be assayed in the culture medium and in a cell extract, however, the protein may not be transported through the cell wall. Thus, if no or low activity of a secreted form of GUS is found in the culture medium, protoplasts made by osmotic shock or enzymatic digestion of the cell wall or other suitable procedure and the supernatant are assayed for GUS activity. […]
Cellular fractions (e.g., periplasm, spheroplast, supernatant, etc.) are prepared from KW1 cells transformed with pRAJa17.1 or a subfragment that contains the GUS gene and from E. coli cells that express β-glucuronidase. GUS activity and β-galactosidase (β-gal) activity is determined for each fraction. The percent of total activity in the periplasm fraction for GUS and β-gal (a non-secreted protein) are calculated; the amount of β-gal activity is considered background and thus is subtracted from the amount of β-glucuronidase activity. […]

A further test has as its system E. coli. The experiment in a line: GUS activity of transfectants with expression vectors, E. coli host. Also on record: key: all tested transfectants exhibit GUS activity (indicated by a +). To be noted: No SP (signal peptide). The method, then:
as §1, §2, §3

In test [1] the test system is plants (rice, Millin variety). Put plainly: GUS activity of transfectants with expression vectors, plant host. Details: key: all tested transfectants exhibit GUS activity (indicated by a +). The method, then: as §1, §2, §3
The next test has as its system KW1. The experiment in a line: X-GlcA staining of low-cysteine E. coli GUS muteins in KW1. The conditions noted are these: pBS backbone in KW1, staining with X-GlcA. From the text:
Single and multiple Cys muteins are constructed by site-directed mutagenesis techniques. Eight of the nine cysteine residues in E. coli GUS are changed to the corresponding residue found in human GUS based on alignment of the two protein sequences. One of the E. coli GUS cysteine residues, amino acid 463, aligns with a cysteine residue in human GUS and was not altered. The corresponding amino acids between E. coli GUS and human GUS are shown below.
The mutein GUS genes are cloned into a pBS backbone. The mutations are confirmed by diagnostic restriction site changes and by DNA sequence analysis. Recombinant vectors are transfected into KW1 and GUS activity assayed by staining with X-GlcA (5-bromo-4-chloro-3-indolyl-β-D-glucuronide).

B1: E. coli GUS: E. coli β-glucuronidase encoded by gusA, 603 amino acids, used as comparison standard (protein, UniProt P05804 1-603, looked up)
Beta-glucuronidase: MLRPVETPTREIKKLDGLWAFSLDRENCGIDQRWWESALQESRAIAVPGSFNDQFADADIRNYAGNVWYQREVFIPKGWAGQRIVLRFDAVTHYGKVWVNNQEVMEHQGGYTPFEADVTPYVIAGKSVRITVCVNNELNWQTIPPGMVITDENGKKKQSYFHDFFNYAGIHRSVMLYTTPNTWVDDITVVTHVAQDCNHASVDWQVVANGDVSVELRDADQQVVATGQGTSGTLQVVNPHLWQPGEGYLYELCVTAKSQTECDIYPLRVGIRSVAVKGEQFLINHKPFYFTGFGRHEDADLRGKGFDNVLMVHDHALMDWIGANSYRTSHYPYAEEMLDWADEHGIVVIDETAAVGFNLSLGIGFEAGNKPKELYSEEAVNGETQQAHLQAIKELIARDKNHPSVVMWSIANEPDTRPQGAREYFAPLAEATRKLDPTRPITCVNVMFCDAHTDTISDLFDVLCLNRYYGWYVQSGDLETAEKVLEKELLAWQEKLHQPIIITEYGVDTLAGLHSMYTDMWSEEYQCAWLDMYHRVFDRVSAVVGEQVWNFADFATSQGILRVGGNKKGIFTRDRKPKSAAFLLQKRWTGMNFGEKPQQGGKQ
Take B1: the GUS activity result (in the test with yeast (Invertase signal peptide); in the test on yeast (Mat α signal peptide); with yeast (No SP); with E. coli; in test [1] (Extensin signal peptide); in test [1] (GRP signal peptide)) was “+” throughout. Moreover, the GUS activity entry in test [1] (No SP) was “+”. Moreover, the “GUS activity found in the periplasm” value in the test with KW1 cells was “less than 10%”.

B2: D, E: E. coli GUS mutein, Cys 253 to Glu and Cys 262 to Ser (protein, UniProt P05804 1-603, looked up, variant C253E C262S)
Beta-glucuronidase: MLRPVETPTREIKKLDGLWAFSLDRENCGIDQRWWESALQESRAIAVPGSFNDQFADADIRNYAGNVWYQREVFIPKGWAGQRIVLRFDAVTHYGKVWVNNQEVMEHQGGYTPFEADVTPYVIAGKSVRITVCVNNELNWQTIPPGMVITDENGKKKQSYFHDFFNYAGIHRSVMLYTTPNTWVDDITVVTHVAQDCNHASVDWQVVANGDVSVELRDADQQVVATGQGTSGTLQVVNPHLWQPGEGYLYELEVTAKSQTESDIYPLRVGIRSVAVKGEQFLINHKPFYFTGFGRHEDADLRGKGFDNVLMVHDHALMDWIGANSYRTSHYPYAEEMLDWADEHGIVVIDETAAVGFNLSLGIGFEAGNKPKELYSEEAVNGETQQAHLQAIKELIARDKNHPSVVMWSIANEPDTRPQGAREYFAPLAEATRKLDPTRPITCVNVMFCDAHTDTISDLFDVLCLNRYYGWYVQSGDLETAEKVLEKELLAWQEKLHQPIIITEYGVDTLAGLHSMYTDMWSEEYQCAWLDMYHRVFDRVSAVVGEQVWNFADFATSQGILRVGGNKKGIFTRDRKPKSAAFLLQKRWTGMNFGEKPQQGGKQ
For the molecule B2, in the test with KW1, the GUS activity result is “Yes”.
